Test [1] deals with F-actin (polymerised chicken muscle G-actin) (chicken) (UniProt P68139). The test can be described thus: co-sedimentation.
Test [2] addresses E-cadΔ70/α monomer (recombinant; E-cadherin cytoplasmic tail lacking the C-terminal 70 aa fused to αE-catenin) (mouse) (UniProt P09803). The test is described as follows: ITC.
For test [3], the target named is E-cad/α monomer (recombinant; entire E-cadherin cytoplasmic tail fused to αE-catenin) (mouse) (UniProt P09803). The test is described as follows: ITC.

This note sets out measurements from PMC4586751.

The substance “E-cadΔ70/α homodimer (recombinant) (from UniProt P09803 736-815) (complex)” gave a Kd in test [1] of 1600 nM.
Take “β-catenin (full-length mouse, recombinant) (from UniProt Q02248 1-781) (natural protein)”: in test [2], the Kd is 36.6 nM, the dH was -16.9 kcal/mol and the stoichiometry N is 1. For the same substance, in test [3], the Kd is 74 nM and the dH is -58 kcal/mol.
